Results taken from paper PMC3971405, “Molecular basis for the fold organization and sarcomeric targeting of the muscle atrogin MuRF1” (Open Biology, 2014).

B1: MuRF1^B2|CC|COS (B2 box, helix H1 and COS-box of MuRF1, residues 114-327, C298S) (domain or fragment)
chain: LQKGSHPMCKEHEDEKINIYCLTCEVPTCSMCKVFGIHKACEVAPLQSVFQGQKTELNNCISMLVAGNDRVQTIITQLEDSRRVTKENSHQVKEELSQKFDTLYAILDEKKSELLQRITQEQEKKLSFIEALIQQYQEQLDKSTKLVETAIQSLDEPGGATFLLTAKQLIKSIVEASKGSQLGKTEQGFENMDFFTLDLEHIADALRAIDFGTD
B2: MuRF1^CC (coiled-coil-prone segment of human MuRF1, residues 214-271) (domain or fragment)
chain: GAMDTLYAILDEKKSELLQRITQEQEKKLSFIEALIQQYQEQLDKSTKLVETAIQSLDEPG
notes: MuRF1 (E3 ubiquitin ligase, TRIM family), human, UniProtKB Q969Q1, residues 214-271 (D214 to G271); Cloned into pETM-11 (His6-tag and TEV site N-terminal); also called CC^214-271; MuRF1 CC segment; not shown: His6, N-terminal, cleaved

Key:
[1] = target: the molecule itself; assay: SEC-MALS; SEC-MALLS, Superdex 200 10/300, 20 mM Tris pH 8.0, 100 mM NaCl; injected at 0.7 mg/ml
[2] = target: the molecule itself; assay: crystal structure; crystals grown at 20°C in 35% MPD, 0.1 M sodium acetate pH 4.5, 20% glycerol, 20 mM NaF; four chains in the asymmetric unit; 2.1 Å
[3] = target: the molecule itself; assay: SEC-MALS; SEC-MALLS, Superdex 75 10/300 GL, 20 mM Tris pH 8.0, 50 mM NaCl; 1 ml injected at 1.5 mg/ml

Protein	stoichiometry N [1]	stoichiometry N [2]	stoichiometry N [3]
B1	2		
B2		4	~2
